Source: publication PMC4671291 (The Biochemical journal, 2011)

Target: the molecule itself
Assay: SEC

B1: Saccharomyces cerevisiae dUTP pyrophosphatase DUT1 (enzyme, S. cerevisiae)
chain: MTATSDKVLKIQLRSASATVPTKGSATAAGYDIYASQDITIPAMGQGMVSTDISFTVPVGTYGRIAPRSGLAVKNGIQTGAGVVDRDYTGEVKVVLFNHSQRDFAIKKGDRVAQLILEKIVDDAQIVVVDSLEESARGAGGFGSTGN
For B1, the “stoichiometry N” value was 3.
